The target of the test is T1, DJ-1 (human (endogenous in M17D neuroblastoma cells)), Q99497.
T1 chain: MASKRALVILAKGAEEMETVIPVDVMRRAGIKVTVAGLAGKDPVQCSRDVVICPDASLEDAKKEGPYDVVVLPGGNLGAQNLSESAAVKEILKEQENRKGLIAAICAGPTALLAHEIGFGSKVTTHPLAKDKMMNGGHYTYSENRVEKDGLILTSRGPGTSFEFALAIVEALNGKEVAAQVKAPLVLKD
In words: cross-linking. To be noted: remark: other sources report otherwise.

B1: DJ-1, Q99497 1-189 (natural protein)
chain: T1 chain
Usually stoichiometry N stands for a count of units in the complex or per binding partner. The molecule B1 yielded a stoichiometry N of 2.

Values taken from article PMC6408259.
